As a reminder, the Kd is the equilibrium constant for the complex coming apart. Lower therefore signals tighter binding.

The assay addresses FOLR1-His (Homo sapiens, UniProt P15328). The experiment in a line: SPR.

Chain of FOLR1-His (P15328 25-233): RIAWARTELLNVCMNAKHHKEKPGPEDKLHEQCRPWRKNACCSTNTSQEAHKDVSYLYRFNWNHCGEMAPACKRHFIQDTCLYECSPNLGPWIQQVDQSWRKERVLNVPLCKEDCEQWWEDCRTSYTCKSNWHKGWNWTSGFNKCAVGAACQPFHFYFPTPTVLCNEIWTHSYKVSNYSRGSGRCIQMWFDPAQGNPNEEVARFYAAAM

B1: KM8188 (antibody, V domains shown)
VH: EVQLVESGGGVVQPGRSLRLSCSASGFTFSGYGLSWVRQAPGKGLEWVAMISSGGSYTYYADSVKGRFAISRDNAKNTLFLQMDSLRPEDTGVYFCARHGDDPAWFAYWGQGTPVTVSS
VL: DIQLTQSPSSLSASVGDRVTITCSVSSSISSNNLHWYQQKPGKAPKPWIYGTSNLASGVPSRFSGSGSGTDYTFTISSLQPEDIATYYCQQWSSYPYMYTFGQGTKVEIK
B1 displayed a Kd of 31.4 nM.

For the origin of these results see PMC5508476 (Translational Oncology, 2017).
